Source: the RNAGym collection of RNA variant scans (doi:10.7554/elife.80360)

B1: Hairpin Ribozyme (parent)
chain: GUCCUCUUUCACGUGCGCGUGAAAGAGAGAAGUGAACCAGAGAAACACACGUUGUGGUAUAUUACCUGGUA

Variants of: B1
Experiment: self-cleavage, relative activity (ratio to wild type); higher = more cleavage; co-transcriptional

Variant	self-cleavage
GUCCUCUUUCACGUGCGCGUGAAAGAGAGAAGUGAACCAGAUAAACAAACGUUGUGGUAUAUUACCUGGUA [G42U C48A]	0.215
GUCCUCUUUCACGUGCGCGUGAAAGAGAGAAGUGAACCAGAUAAACACGCGUUGUGGUAUAUUACCUGGUA [G42U A49G]	0.134
GUCCUCUUUCACGUGCGCGUGAAAGAGAGAAGUGAACCAGAUAAACACACGUUGAGGUAUAUUACCUGGUA [G42U U55A]	0.069
GUCCUCUUUCACGUGCGCGUGAAAGAGAGAAGUGAACCAGAGCGACACACGUUGUGGUAUAUUACCUGGUA [A43C A44G]	0.0582
GUCCUCUUUCACGUGCGCGUGAAAGAGAGAAGUGAACCAGAGCAACACACGUUGUGGUAUAUAACCUGGUA [A43C U63A]	0.126
GUCCUCUUUCACGUGCGCGUGAAAGAGAGAAGUGAACCAGAUAAACACACGUUGUGGUAUAUUAGCUGGUA [G42U C65G]	0.209
GUCCUCUUUCACGUGCGCGUGAAAGAGAGAAGUGAACCAGAGCAACACACGUUGUGGUAUAUUUCCUGGUA [A43C A64U]	0.198
GUCCUCUUUCACGUGCGCGUGAAAGAGAGAAGUGAACCAGAUAAACACACGUUUUGGUAUAUUACCUGGUA [G42U G54U]	0.191
GUCCUCUUUCACGUGCGCGUGAAAGAGAGAAGUGAACCAGAUAAACACACGUUCUGGUAUAUUACCUGGUA [G42U G54C]	0.122
GUCCUCUUUCACGUGCGCGUGAAAGAGAGAAGUGAACCAGAUAAACACACGUUAUGGUAUAUUACCUGGUA [G42U G54A]	0.197
GUCCUCUUUCACGUGCGCGUGAAAGAGAGAAGUGAACCAGAGCAACAGACGUUGUGGUAUAUUACCUGGUA [A43C C48G]	0.0498
GUCCUCUUUCACGUGCGCGUGAAAGAGAGAAGUGAACCAGACAAACACACGUUGUGGUAUAUGACCUGGUA [G42C U63G]	0.238
GUCCUCUUUCACGUGCGCGUGAAAGAGAGAAGUGAACCAGAUAAACACACGUUGUGUUAUAUUACCUGGUA [G42U G57U]	0.187
GUCCUCUUUCACGUGCGCGUGAAAGAGAGAAGUGAACCAGAUAAACACACGUUGUGCUAUAUUACCUGGUA [G42U G57C]	0.0657
GUCCUCUUUCACGUGCGCGUGAAAGAGAGAAGUGAACCAGAUAAACACACGUUGUGAUAUAUUACCUGGUA [G42U G57A]	0.187
GUCCUCUUUCACGUGCGCGUGAAAGAGAGAAGUGAACCAGACAAACACACGUUGUGGUAUAUUACCAGGUA [G42C U67A]	0.0793
GUCCUCUUUCACGUGCGCGUGAAAGAGAGAAGUGAACCAGACAAACACACGUUGUGGUAUAUUACCGGGUA [G42C U67G]	0.125
GUCCUCUUUCACGUGCGCGUGAAAGAGAGAAGUGAACCAGAUAAACACACGUUGUGGAAUAUUACCUGGUA [G42U U58A]	0.0966
GUCCUCUUUCACGUGCGCGUGAAAGAGAGAAGUGAACCAGAGCACCACACGUUGUGGUAUAUUACCUGGUA [A43C A45C]	0.153

Variant	self-cleavage
GUCCUCUUUCACGUGCGCGUGAAAGAGAGAAGUGAACCAGAGCAACACACGCUGUGGUAUAUUACCUGGUA [A43C U52C]	0.109
GUCCUCUUUCACGUGCGCGUGAAAGAGAGAAGUGAACCAGAGCAACACACGGUGUGGUAUAUUACCUGGUA [A43C U52G]	0.164
GUCCUCUUUCACGUGCGCGUGAAAGAGAGAAGUGAACCAGAGCAACACACGUUGUGGUAUCUUACCUGGUA [A43C A61C]	0.218
GUCCUCUUUCACGUGCGCGUGAAAGAGAGAAGUGAACCAGAGCAACACACGUUGUGGUAUUUUACCUGGUA [A43C A61U]	0.0908
GUCCUCUUUCACGUGCGCGUGAAAGAGAGAAGUGAACCAGAUAAACACACGUUGUGGUAUAUUACCUGGUU [G42U A71U]	0.217
GUCCUCUUUCACGUGCGCGUGAAAGAGAGAAGUGAACCAGAUAAACACACGUUGUGGUAUAUUACCUGGUG [G42U A71G]	0.393
GUCCUCUUUCACGUGCGCGUGAAAGAGAGAAGUGAACCAGAGCAACACACGUUGUGGUAUAUUACUUGGUA [A43C C66U]	0.181
GUCCUCUUUCACGUGCGCGUGAAAGAGAGAAGUGAACCAGAGCAACACACGUUGUUGUAUAUUACCUGGUA [A43C G56U]	0.141
GUCCUCUUUCACGUGCGCGUGAAAGAGAGAAGUGAACCAGAGCAACACACGUUGUAGUAUAUUACCUGGUA [A43C G56A]	0.13
GUCCUCUUUCACGUGCGCGUGAAAGAGAGAAGUGAACCAGAGCAACACACGUUGUCGUAUAUUACCUGGUA [A43C G56C]	0.165
GUCCUCUUUCACGUGCGCGUGAAAGAGAGAAGUGAACCAGAUAAACACACGUUGUGGUAUAUGACCUGGUA [G42U U63G]	0.168
GUCCUCUUUCACGUGCGCGUGAAAGAGAGAAGUGAACCAGAGCAACACACGUUGGGGUAUAUUACCUGGUA [A43C U55G]	0.148
GUCCUCUUUCACGUGCGCGUGAAAGAGAGAAGUGAACCAGACAAACACACGUUGUGGUAUAUUACCUGGGA [G42C U70G]	0.145
GUCCUCUUUCACGUGCGCGUGAAAGAGAGAAGUGAACCAGAGCAAUACACGUUGUGGUAUAUUACCUGGUA [A43C C46U]	0.194
GUCCUCUUUCACGUGCGCGUGAAAGAGAGAAGUGAACCAGAGGUACACACGUUGUGGUAUAUUACCUGGUA [A43G A44U]	0.207
GUCCUCUUUCACGUGCGCGUGAAAGAGAGAAGUGAACCAGAGCAACACACGUUGUGGUAGAUUACCUGGUA [A43C U60G]	0.0932
GUCCUCUUUCACGUGCGCGUGAAAGAGAGAAGUGAACCAGAGCAACACACGUUGUGGUAAAUUACCUGGUA [A43C U60A]	0.162
GUCCUCUUUCACGUGCGCGUGAAAGAGAGAAGUGAACCAGAUAAACACAAGUUGUGGUAUAUUACCUGGUA [G42U C50A]	0.189
GUCCUCUUUCACGUGCGCGUGAAAGAGAGAAGUGAACCAGAUAAACACAGGUUGUGGUAUAUUACCUGGUA [G42U C50G]	0.26
